{"source": "patent US20220003772A1", "about": "“METHODS OF TREATING CANCER” (priority 2018, published 2022)", "key": {"[1]": {"biological_target": "T1, free sBCMA (Homo sapiens, UniProt Q02223)", "T1 construct": "the extracellular portion of the BCMA receptor is cleaved from the membrane of the plasma cell surface; from tissue; host or cells: serum of clinical study subjects", "T1 sequence (Q02223 1-54 limits assumed)": "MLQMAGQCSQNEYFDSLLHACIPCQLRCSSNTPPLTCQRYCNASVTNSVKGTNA", "experiment": "Reduction of free sBCMA in serum after infusion (free sBCMA MSD immunoassay)", "format": "in vivo", "details": "at higher dose levels", "method": "In a dose escalation clinical study, 38 subjects were treated with J6M0-MMAF (Part1). The doses ranged from 0.03 mg/kg up to 4.60 mg/kg (0.03 mg/kg, 0.06 mg/kg, 0.12 mg/kg, 0.24 mg/kg, 0.48 mg/kg, 0.96 mg/kg, 1.92 mg/kg, 2.5 mg/kg, 3.4 mg/kg, and 4.6 mg/kg). An expansion cohort of 35 subjects followed at a dose of 3.40 mg/kg (Part2). […] Levels of circulating soluble BCMA (sBCMA) were followed during these studies. Soluble BCMA was measured in serum samples collected at pre- and post-infusion of J6M0-MMAF. Immunoassays (FIG. 1) were used to determine the levels of free sBCMA (FIG. 1a) and J6M0-MMAF-bound sBCMA (FIG. 1b).\nFree sBCMA Assay Protocol (FIG. 1a) 1.1. Preparation of Anti-BCMA Antibody Coated Plates (3 μg/ml)\n1. An appropriate volume (˜3 mL per plate) of capture coating antibody was prepared—anti-BCMA antibody (J6M0) at 3 μg/mL in DPBS.\n2. […]\n1. 1×MSD read buffer was prepared as follows:\n5 mL of 4×MSD read buffer T (Meso Scale Discovery #R92TC-1) plus 15 mL of Milli-Q water.\n3. […], of 1× read buffer was transferred into to each well of the assay plate.\n4. The MSD assay plate was read immediately by using the MSD Sector Imager 6000 (Meso Scale Discovery).\nThe binding of J6M0-MMAF to sBCMA was measured by comparing the post-infusion levels of free sBCMA measured 60 minutes after the start of infusion to those found at pre-infusion. […]"}, "[2]": {"biological_target": "T2, BCMA (Homo sapiens, UniProt Q02223)", "T2 construct": "BCMA membrane expression is present on a subset of normal late-stage B cells and is universally detected on normal and malignant plasma cells; endogenous in cells; host or cells: plasma/myeloma cells of the clinical study subjects (in vivo)", "T2 sequence (Q02223 1-184)": "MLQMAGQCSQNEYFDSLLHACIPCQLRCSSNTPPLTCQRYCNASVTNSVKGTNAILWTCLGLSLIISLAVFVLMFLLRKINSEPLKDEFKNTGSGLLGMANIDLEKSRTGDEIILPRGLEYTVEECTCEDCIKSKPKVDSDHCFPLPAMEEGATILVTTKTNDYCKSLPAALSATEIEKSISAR", "experiment": "Dose escalation / expansion clinical study of J6M0-MMAF: response by IMWG criteria", "format": "in vivo", "details": "expansion cohort of 35 subjects (Part2), dose 3.40 mg/kg; 21/35; 95% CI 42.1-76.1"}}, "data": [{"substance": "J6M0-MMAF", "values": [{"measurement": "binding of sBCMA by J6M0-MMAF in patients", "setting": "[1]", "result": "binds a large fraction of sBCMA"}, {"measurement": "overall response rate (ORR) by IMWG criteria", "setting": "[2]", "result": 60, "unit": "%"}]}]}
